This is an account of results in patent US20200002434A1 (BIOSION, published 2020).

Assay [1] has as its target recombinant human ErbB2 extracellular domain (ErbB2-ECD) (human) (UniProt P04626). The experiment in a line: competitive ELISA vs biotin-Trastuzumab on ErbB2-ECD; control.
Assay [2] deals with T1, recombinant mouse ErbB2-ECD (mouse, UniProt P70424 23-653).
T1 construct: extracellular domain
The assay is described as follows: indirect ELISA, coated ErbB2-ECD 1 ug/ml. The procedure: (§1) Using indirect ELISA described in Example 1, the binding activity of antibodies of this invention to recombinant ErbB2-ECD derived from different species such as mouse, rat, Macaca mulatta, Macaca fascicularis and human, was examined. Briefly. Coat 96-well ELISA plates with 1 ug/ml recombinant ErbB2-ECD of different species with 100 ul/well and incubate at 4° C. for overnight. Remove the coating solution by discarding and tapping gently on a filter paper. Add 200 ul/well blocking buffer, incubate at 37° C. for 1-2 hours. Add purified antibody of this invention and incubate at 37° C. for one hour. Wash the plate 3 times with PBST, add goat anti-mouse IgG-HRP 100 ul/well, incubate at 37° C. for one hour. Wash the plate 3 times with PBST, add 100 ul/well TMB after 15 min, add 50 ul/well 1N HCl. Read the plate with Microplate Reader at 450 nm wavelength.
On the technique in general: ELISA stands for enzyme-linked immunosorbent assay.

Assay [3] addresses T2, recombinant Macaca mulatta ErbB2-ECD (Macaca mulatta, UniProt I0FM22 23-652).
T2 construct: extracellular domain
The experiment in a line: indirect ELISA, coated ErbB2-ECD 1 ug/ml. As to the method:
as §1

In assay [4] the target is T3, recombinant rat ErbB2-ECD (rat, UniProt P06494 23-654).
T3 construct: extracellular domain
T3 sequence (P06494 23-654): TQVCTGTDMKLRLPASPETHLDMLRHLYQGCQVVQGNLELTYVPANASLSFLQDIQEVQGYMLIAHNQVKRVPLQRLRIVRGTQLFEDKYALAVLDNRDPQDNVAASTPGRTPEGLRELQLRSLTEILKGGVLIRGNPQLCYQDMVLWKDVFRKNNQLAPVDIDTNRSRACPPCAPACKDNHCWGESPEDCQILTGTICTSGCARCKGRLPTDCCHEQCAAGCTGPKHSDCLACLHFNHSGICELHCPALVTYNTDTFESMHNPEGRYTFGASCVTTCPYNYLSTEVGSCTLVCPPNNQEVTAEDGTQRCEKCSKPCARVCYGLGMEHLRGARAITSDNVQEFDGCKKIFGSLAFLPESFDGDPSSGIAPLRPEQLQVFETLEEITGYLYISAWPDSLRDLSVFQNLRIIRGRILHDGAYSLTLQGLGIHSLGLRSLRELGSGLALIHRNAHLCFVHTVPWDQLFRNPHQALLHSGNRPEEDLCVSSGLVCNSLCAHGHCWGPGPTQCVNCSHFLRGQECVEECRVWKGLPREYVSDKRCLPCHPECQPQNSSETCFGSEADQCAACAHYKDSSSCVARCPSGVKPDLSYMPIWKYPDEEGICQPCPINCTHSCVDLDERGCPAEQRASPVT
The assay is described as follows: indirect ELISA, coated ErbB2-ECD 1 ug/ml. As to the method:
as §1

The target of assay [5] is T4, recombinant human ErbB2 extracellular domain (ErbB2-ECD) (human, UniProt P04626 23-652).
T4 construct: extracellular domain; Coated on plates or used biotin-labeled in solution (capture ELISA); also called Human ErbB2-ECD; rhErbB2
The experiment in a line: capture ELISA, coated antibody, biotin-human ErbB2-ECD titrated. The procedure: (§2) The corresponding purified IgG of five antibodies of this invention were also evaluated for their binding activity to recombinant human ErbB2 by capture ELISA. The procedure is briefly described as following: The 96-well plates were coated with 0.5 μg/ml anti-ErbB2 antibody overnight, blocked by 1% BSA in PBST at 37° C. for one hour. Add serial diluted sample of biotin-human ErbB2-ECD started with 2 μg/ml with 1:5 serial dilution. Wash the plate 3 times with PBST and add 100 ul of HRP-streptavidin (1:5000) to each well. Incubate for another 40 min at 37° C. Wash the plate 3 times with PBST and add 100 ul/well of TMB to develop at RT for 15 min followed by quenching with 50 ul 1N HCl. Read the plates at 450 nm for OD's value. Calculate the binding EC50 by using Prism software and the results are in Table 8 below

Assay [6] concerns the target T5, human ErbB2 on ErbB2-positive cells (human, UniProt P04626 23-1255). The assay is described as follows: cell-based or functional assay.
Assay [7] has as its target T4, recombinant human ErbB2 extracellular …. The experiment in a line: capture ELISA, recombinant ErbB2-ECD. As to the method: as §2
The variable domains of the heavy and light chain of the anti-ErbB2 monoclonal antibodies (Table 12, above) were cloned in-frame to human IgG1 heavy-chain and kappa light-chain constant regions, respectively.

In assay [8] the target is T1, recombinant mouse ErbB2-ECD. The experiment in a line: indirect ELISA, coated ErbB2-ECD. As to the method: as §1
(§3) Following the same method described in Example 5, the binding activity of the chimeric antibodies of this invention was examined for binding recombinant ErbB2-ECD derived from different species such as mouse, rat Macaca mulatta, Macaca fasciculari and human.

The target of assay [9] is T2, recombinant Macaca mulatta ErbB2-ECD. The assay is described as follows: indirect ELISA, coated ErbB2-ECD. The procedure: as §1, §3
For assay [10], the target named is T3, recombinant rat ErbB2-ECD. The assay is described as follows: indirect ELISA, coated ErbB2-ECD. The procedure: as §1, §3
Assay [11] has as its target T4, recombinant human ErbB2 extracellular …. The experiment in a line: capture ELISA, recombinant ErbB2-ECD. The source holds these as a separate data set.
Assay [12] deals with T5, human ErbB2 on ErbB2-positive cells. The experiment in a line: cell-based or functional assay. This is another data set of the same source.
The target is the same in assay [13]. The assay is described as follows: cell-based or functional assay. The source holds these as a separate data set.
Assay [14] concerns the target T4, recombinant human ErbB2 extracellular …. The assay is described as follows: capture ELISA, recombinant ErbB2-ECD. The source holds these as a separate data set.

Substitutions are numbered along the chain they refer to.

T1 sequence (P70424 23-653): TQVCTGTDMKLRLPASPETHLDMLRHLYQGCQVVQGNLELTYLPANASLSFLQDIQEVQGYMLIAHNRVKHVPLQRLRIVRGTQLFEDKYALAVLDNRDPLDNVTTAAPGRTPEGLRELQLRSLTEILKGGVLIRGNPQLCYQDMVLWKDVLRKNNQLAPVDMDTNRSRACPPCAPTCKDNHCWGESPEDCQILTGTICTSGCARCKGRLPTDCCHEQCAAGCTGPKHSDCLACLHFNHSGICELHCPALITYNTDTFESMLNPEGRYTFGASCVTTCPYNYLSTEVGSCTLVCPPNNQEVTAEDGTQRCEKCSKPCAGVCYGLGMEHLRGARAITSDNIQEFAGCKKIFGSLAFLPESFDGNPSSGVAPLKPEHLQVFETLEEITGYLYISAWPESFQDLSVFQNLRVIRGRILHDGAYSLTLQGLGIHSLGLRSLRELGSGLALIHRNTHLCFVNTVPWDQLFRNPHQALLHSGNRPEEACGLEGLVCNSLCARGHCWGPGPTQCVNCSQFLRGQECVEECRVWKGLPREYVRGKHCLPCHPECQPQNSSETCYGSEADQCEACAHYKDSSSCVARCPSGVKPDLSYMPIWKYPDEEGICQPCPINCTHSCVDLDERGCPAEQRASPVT

As for normal mouse IgG (antibody), the OD450 in assay [1] worked out at 2.8 OD.

As to normal human IgG (antibody), the OD450 in [1] is 2.91 OD.

B1: 5G9 mouse anti-ErbB2 monoclonal antibody (antibody, mouse IgG1, V domains shown)
VH: QVQLQQSGAELARPGASVKMSCKTSGYTFSSYTIHWVKQRPGQGLDWIGYINPSSDYTAYNQKFRDKATLTADQSSNTAYMQLSSLASADSAVYYCARASAFSLDFWGQGTTLTVSS
VL: DIQMTQSPSSLSASLGGKVTISCKASHDIDRYIAWYQHKPGKGPRLLIHYTSTLQPGIPSRFSGSGSGRDYSFSISNLEPEDVATYYCLNYDNLLWTFGGGTKLEIT
notes: also called 5G91B42A3; IgG 5G9
On to B1, for which the values for the binding result in assay [2], in [3] and in [4] were “no binding”, “binds” and “no binding”, respectively. Also, in assay [5], the EC50 (commonly the concentration at which the effect is half-maximal) worked out at 0.499 nM. Moreover, the “BT474 cell proliferation inhibition IC50 (hIgG + 5G9)” value in [6] is about 1.33 nM.

B2: 5G9 chimera (antibody, V domains shown)
VH: B1 VH
VL: B1 VL
notes: also called 5G9 chimeric; 5G9 chimeric antibody
For the molecule B2, the EC50 in assay [7] was 0.049 nM; in [11], 0.044 nM. Moreover, the binding result is reported as “no binding” in assay [8], “binds” in assay [9] and “no binding” in assay [10]. For the same molecule, the “BT474 cell proliferation inhibition IC50 (hIgG + 5G9c)” value in [12] stood at 43.4 nM.

B3: 4C9 chimera (antibody, V domains shown)
VH: B1 VH with T24A, S30T, I34M, D56G, A59T, R65K, Q74K, N77S, F102Y, F106Y
VL: B1 VL with K18R, S22T, V83I, N90K
notes: also called 4C9 chimeric antibody
In the case of B3, in assay [7], the EC50 turned out to be 0.114 nM. Further, the binding result in assay [8] is listed as “no binding”; in assay [9], “binds”; in [10], “no binding”.

B4: 4C9 mouse anti-ErbB2 monoclonal antibody (antibody, mouse IgG1, V domains shown)
VH: B1 VH with T24A, S30T, I34M, D56G, A59T, R65K, Q74K, N77S, F102Y, F106Y
VL: B1 VL with K18R, S22T, V83I, N90K
notes: also called 4C9G3F5; IgG 4C9
For the molecule B4, the binding result in assay [2] is “no binding”; in assay [3] it was “binds”; in [4], “no binding”. Also, the EC50 in [5] was determined as 0.142 nM. For the same molecule, in [13], the “Internalization rate in SKBR3 cells, FITC signal, 2-hour” value (shortened to “Internalization rate in SKBR3 cells”) amounted to 23.8. For the same molecule, in [6], the “BT474 cell proliferation inhibition IC50 (hIgG + 4C9)” value amounted to 0.471 nM.

B5: 4H2 mouse anti-ErbB2 monoclonal antibody (antibody, mouse IgG1, V domains shown)
VH: QVQLQQSGAELARPGASVKMSCKASGFTFTSYTIHWVKQRPGQGLDWIGYINPSSGYTTYNQRFKDKATLTADKSSSTAYMQLSSLTSADSAVYYCARASAYSLDYWGQGTTLTVSS
VL: B1 VL with S22T, H27Q, D70N, V83I, N90K, T107K
notes: also called 4H2H2H9; IgG 4H2
Consider B5, for which the binding result is “no binding” in [2], “binds” in [3] and “no binding” in assay [4]. Besides, the EC50 in assay [5] amounted to 0.117 nM. For the same molecule, in assay [13], the “Internalization rate in SKBR3 cells” value was 17.7. For the same molecule, the “BT474 cell proliferation inhibition IC50 (hIgG + 4H2)” value in [6] was about 1.17 nM.

B6: 4H2 chimera (antibody, V domains shown)
VH: B5 VH
VL: B1 VL with S22T, H27Q, D70N, V83I, N90K, T107K
notes: also called 4H2 chimeric antibody
With B6, the EC50 in assay [7] is 0.118 nM. Also, the binding result in assay [8] was “no binding”; in assay [9], “binds”; in [10], “no binding”. Moreover, the “BT474 cell proliferation inhibition IC50 (hIgG + 4H2c)” value in assay [12] stood at 19.3 nM.

B7: 4G6 chimera (antibody, V domains shown)
VH: B5 VH with F27Y, I34M, D46E, G56A, T59N, R63K, Y80N, S84N, A89E, T112A
VL: DIQMTQSPSSLSASLGGKVTITCKASQDINKYIAWYQHKPGKGPRLLIHSTSTLYPGIPSRFSGSGSGRDYSFRITNLEPEDIATYYCLQYDNLLWTFGGGTKVGIR
notes: also called 4G6 chimeric antibody
As to B7, the EC50 in assay [7] was found to be 0.02 nM. Moreover, the binding result in assay [8] is “no binding”; in assay [9] it was “binds”; in assay [10], “no binding”. In addition, in [12], the “BT474 cell proliferation inhibition IC50 (hIgG + 4G6c)” value was determined as 36.3 nM.

B8: 4G6 mouse anti-ErbB2 monoclonal antibody (antibody, mouse IgG1, V domains shown)
VH: B5 VH with F27Y, I34M, D46E, G56A, T59N, R63K, Y80N, S84N, A89E, T112A
VL: B7 VL
notes: also called 4G6C9B8; IgG 4G6
Take B8: the binding result in assay [2] is reported as “no binding”; in assay [3] it was “binds”; in [4], “no binding”. The EC50 in [5] worked out at 0.021 nM. Also, the “Internalization rate in SKBR3 cells” value in assay [13] was 18.5. Moreover, in assay [6], the “BT474 cell proliferation inhibition IC50 (hIgG + 4G6)” value was about 1.24 nM.

B9: 5F12 chimera (antibody, V domains shown)
VH: QVQLQQSGAELARPGASVKMSCKASGYTFTSYTMHWIKQRPGQGLEWIGYINPSSSYTNYNQNFKDKATLTADKSSSTANMQLNSLTSEDSAVYYCARASSYSLDYWGQGTALTVSS
VL: B7 VL with A13T, R69K, V104L
notes: also called 5F12 chimeric; 5F12 chimeric antibody
As to B9, the EC50 in assay [7] turned out to be 0.024 nM; in [14], 0.043 nM. The binding result is recorded as “no binding” in assay [8], “binds” in assay [9] and “no binding” in assay [10].

B10: 5F12 mouse anti-ErbB2 monoclonal antibody (antibody, mouse IgG1, V domains shown)
VH: B9 VH
VL: B7 VL with A13T, R69K, V104L
notes: also called 5F12E5A8; IgG 5F12
B10: the binding result in assay [2] is listed as “no binding”; in [3], “binds”; in assay [4], “no binding”. The EC50 in assay [5] was 0.156 nM. Also, the “Internalization rate in SKBR3 cells” value in assay [13] stood at 22.6. The “BT474 cell proliferation inhibition IC50 (hIgG + 5F12)” value in assay [6] is 0.7 nM.
